# Measurements from publication PMC9482650, “Quantitative fragmentomics allow affinity mapping of interactomes” (Nature Communications, 2022).
# Residue numbers refer to the chain shown, from its start.
# T1: APBA3_1, O96018
# T1 sequence (O96018 389-490, limits assumed, looked up): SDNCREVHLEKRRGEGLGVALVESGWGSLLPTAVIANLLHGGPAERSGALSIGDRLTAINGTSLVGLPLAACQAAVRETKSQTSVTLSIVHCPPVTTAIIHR
# T2: DVL3, Q92997
# T2 sequence (Q92997 244-331, limits assumed, looked up): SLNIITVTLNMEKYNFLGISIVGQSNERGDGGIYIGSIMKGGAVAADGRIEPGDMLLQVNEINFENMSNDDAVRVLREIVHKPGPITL
# T3: FRMPD1, Q5SYB0
# T3 sequence (Q5SYB0 52-145, limits assumed, looked up): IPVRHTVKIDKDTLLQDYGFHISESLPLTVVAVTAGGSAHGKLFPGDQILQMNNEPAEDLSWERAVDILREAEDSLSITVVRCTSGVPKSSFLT
# T4: GRIP1_4, Q9Y3R0
# T4 sequence (Q9Y3R0 467-571, limits assumed, looked up): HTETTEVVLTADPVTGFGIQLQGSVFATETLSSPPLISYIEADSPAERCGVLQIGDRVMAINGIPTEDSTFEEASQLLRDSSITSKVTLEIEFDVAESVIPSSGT
# T5: HTRA4, P83105
# T5 sequence (P83105 378-476, limits assumed, looked up): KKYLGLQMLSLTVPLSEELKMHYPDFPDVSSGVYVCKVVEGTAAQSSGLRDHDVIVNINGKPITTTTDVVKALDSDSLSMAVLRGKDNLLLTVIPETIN
# T6: LIN7B, Q9HAP6
# T6 sequence (Q9HAP6 88-185, limits assumed, looked up): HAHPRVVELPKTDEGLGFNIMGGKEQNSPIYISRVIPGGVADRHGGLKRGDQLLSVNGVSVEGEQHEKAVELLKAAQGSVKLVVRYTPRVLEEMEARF
# T7: LIN7C, Q9NUP9
# T7 sequence (Q9NUP9 88-185, limits assumed, looked up): T6 sequence (Q9HAP6 88-185, limits assumed, looked up) with A2S, D13E, V35I, V40I, Q65H, S79K, R89K, A96S
# T8: LNX2_3, Q8N448
# T8 sequence (Q8N448 463-564, limits assumed, looked up): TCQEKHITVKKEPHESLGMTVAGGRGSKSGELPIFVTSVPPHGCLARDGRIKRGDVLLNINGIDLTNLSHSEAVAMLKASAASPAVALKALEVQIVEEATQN
# T9: MPP2, Q14168
# T9 sequence (Q14168 180-250, limits assumed, looked up): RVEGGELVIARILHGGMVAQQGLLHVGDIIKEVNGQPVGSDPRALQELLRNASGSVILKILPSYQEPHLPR
# T10: PDZD2_2, O15018
# T10 sequence (O15018 329-429, limits assumed, looked up): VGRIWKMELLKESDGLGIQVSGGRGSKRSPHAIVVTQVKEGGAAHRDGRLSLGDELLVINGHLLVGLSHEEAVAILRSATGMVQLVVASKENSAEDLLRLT
# T11: PDZD7_3, Q9H5P4
# T11 sequence (Q9H5P4 857-944, limits assumed, looked up): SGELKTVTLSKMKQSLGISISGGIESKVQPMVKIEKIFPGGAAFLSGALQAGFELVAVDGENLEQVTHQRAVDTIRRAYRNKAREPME
# Target: T1, APBA3_1, O96018
# Test: holdup assay
# Parameters: key: below the threshold = too weak to quantify, mostly under pKd 3.1 to 4
# Details: plain residues with an end cap or a label only (N-terminal biotin on a linker: ado-ado)
row,Binder,pKd
1,"VYPNAKVELV [PDLIM4_iso2, P50479;P50479-1]",below the threshold
2,"YLEPVLSSEL [ATP2A2, P16615;P16615-3]",below the threshold

# Target: ARHGEF12, Q9NZN5-2
# Test: holdup assay
# Parameters: key: below the threshold = too weak to quantify, mostly under pKd 3.1 to 4
# Details: plain residues with an end cap or a label only (N-terminal biotin on a linker: ado-ado)
# Chain of ARHGEF12, Q9NZN5-2 (Q9NZN5 other isoform, or with tags, fused parts or gaps): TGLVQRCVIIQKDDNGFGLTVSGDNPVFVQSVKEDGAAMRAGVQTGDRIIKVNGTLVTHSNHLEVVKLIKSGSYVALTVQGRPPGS
row,Binder,pKd
1,"VYPNAKVELV [PDLIM4_iso2, P50479;P50479-1]",below the threshold
2,"YLEPVLSSEL [ATP2A2, P16615;P16615-3]",5.38

# Target: DLG4_1, P78352
# Test: holdup assay
# Parameters: key: below the threshold = too weak to quantify, mostly under pKd 3.1 to 4
# Details: plain residues with an end cap or a label only (N-terminal biotin on a linker: ado-ado)
# Chain of DLG4_1, P78352 (P78352 62-152): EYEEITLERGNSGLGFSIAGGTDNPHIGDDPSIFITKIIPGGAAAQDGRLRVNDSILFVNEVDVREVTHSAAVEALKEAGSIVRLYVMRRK
row,Binder,pKd
1,"VYPNAKVELV [PDLIM4_iso2, P50479;P50479-1]",below the threshold
2,"YLEPVLSSEL [ATP2A2, P16615;P16615-3]",below the threshold

# Target: T2, DVL3, Q92997
# Test: holdup assay
# Parameters: key: below the threshold = too weak to quantify, mostly under pKd 3.1 to 4
# Details: plain residues with an end cap or a label only (N-terminal biotin on a linker: ado-ado)
row,Binder,pKd
1,"VYPNAKVELV [PDLIM4_iso2, P50479;P50479-1]",below the threshold
2,"YLEPVLSSEL [ATP2A2, P16615;P16615-3]",below the threshold

# Target: T3, FRMPD1, Q5SYB0
# Test: holdup assay
# Parameters: key: below the threshold = too weak to quantify, mostly under pKd 3.1 to 4
# Details: plain residues with an end cap or a label only (N-terminal biotin on a linker: ado-ado)
row,Binder,pKd
1,"VYPNAKVELV [PDLIM4_iso2, P50479;P50479-1]",below the threshold
2,"YLEPVLSSEL [ATP2A2, P16615;P16615-3]",below the threshold

# Target: FRMPD2_1, Q68DX3
# Test: holdup assay
# Parameters: key: below the threshold = too weak to quantify, mostly under pKd 3.1 to 4
# Details: plain residues with an end cap or a label only (N-terminal biotin on a linker: ado-ado)
# Chain of FRMPD2_1, Q68DX3 (Q68DX3 770-861): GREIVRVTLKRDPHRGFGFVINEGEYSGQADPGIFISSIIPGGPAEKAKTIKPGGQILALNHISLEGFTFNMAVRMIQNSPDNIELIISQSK
row,Binder,pKd
1,"VYPNAKVELV [PDLIM4_iso2, P50479;P50479-1]",below the threshold
2,"YLEPVLSSEL [ATP2A2, P16615;P16615-3]",below the threshold

# Target: GRID2IP_1, A4D2P6
# Test: holdup assay
# Parameters: key: below the threshold = too weak to quantify, mostly under pKd 3.1 to 4
# Details: plain residues with an end cap or a label only (N-terminal biotin on a linker: ado-ado)
# Chain of GRID2IP_1, A4D2P6 (A4D2P6 1-87): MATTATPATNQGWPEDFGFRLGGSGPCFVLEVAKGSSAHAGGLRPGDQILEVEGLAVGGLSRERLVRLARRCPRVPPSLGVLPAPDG
row,Binder,pKd
1,"VYPNAKVELV [PDLIM4_iso2, P50479;P50479-1]",below the threshold
2,"YLEPVLSSEL [ATP2A2, P16615;P16615-3]",below the threshold

# Target: T4, GRIP1_4, Q9Y3R0
# Test: holdup assay
# Parameters: key: below the threshold = too weak to quantify, mostly under pKd 3.1 to 4
# Details: plain residues with an end cap or a label only (N-terminal biotin on a linker: ado-ado)
row,Binder,pKd
1,"VYPNAKVELV [PDLIM4_iso2, P50479;P50479-1]",below the threshold
2,"YLEPVLSSEL [ATP2A2, P16615;P16615-3]",below the threshold

# Target: T5, HTRA4, P83105
# Test: holdup assay
# Parameters: key: below the threshold = too weak to quantify, mostly under pKd 3.1 to 4
# Details: plain residues with an end cap or a label only (N-terminal biotin on a linker: ado-ado)
row,Binder,pKd
1,"VYPNAKVELV [PDLIM4_iso2, P50479;P50479-1]",4.55
2,"YLEPVLSSEL [ATP2A2, P16615;P16615-3]",below the threshold

# Target: IL16_4, Q14005
# Test: holdup assay
# Parameters: key: below the threshold = too weak to quantify, mostly under pKd 3.1 to 4
# Details: plain residues with an end cap or a label only (N-terminal biotin on a linker: ado-ado)
# Chain of IL16_4, Q14005 (Q14005 1229-1329): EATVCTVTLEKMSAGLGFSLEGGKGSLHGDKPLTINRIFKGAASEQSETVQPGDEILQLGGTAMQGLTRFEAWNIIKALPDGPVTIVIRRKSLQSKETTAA
row,Binder,pKd
1,"YLEPVLSSEL [ATP2A2, P16615;P16615-3]",below the threshold

# Target: Inadl_1, Q8NI35
# Test: holdup assay
# Parameters: key: below the threshold = too weak to quantify, mostly under pKd 3.1 to 4
# Details: plain residues with an end cap or a label only (N-terminal biotin on a linker: ado-ado)
# Chain of Inadl_1, Q8NI35 (Q8NI35 113-229): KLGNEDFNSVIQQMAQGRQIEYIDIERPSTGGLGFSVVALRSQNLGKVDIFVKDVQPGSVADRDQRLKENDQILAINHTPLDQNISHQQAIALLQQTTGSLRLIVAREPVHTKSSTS
row,Binder,pKd
1,"VYPNAKVELV [PDLIM4_iso2, P50479;P50479-1]",below the threshold
2,"YLEPVLSSEL [ATP2A2, P16615;P16615-3]",below the threshold

# Target: Inadl_3, Q8NI35
# Test: holdup assay
# Parameters: key: below the threshold = too weak to quantify, mostly under pKd 3.1 to 4
# Details: plain residues with an end cap or a label only (N-terminal biotin on a linker: ado-ado)
# Chain of Inadl_3, Q8NI35 (Q8NI35 359-469): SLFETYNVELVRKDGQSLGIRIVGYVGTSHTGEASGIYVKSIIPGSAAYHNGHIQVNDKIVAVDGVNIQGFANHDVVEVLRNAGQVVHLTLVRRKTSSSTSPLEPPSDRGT
row,Binder,pKd
1,"YLEPVLSSEL [ATP2A2, P16615;P16615-3]",below the threshold

# Target: Inadl_6, Q8NI35
# Test: holdup assay
# Parameters: key: below the threshold = too weak to quantify, mostly under pKd 3.1 to 4
# Details: plain residues with an end cap or a label only (N-terminal biotin on a linker: ado-ado)
# Chain of Inadl_6, Q8NI35 (Q8NI35 1058-1167): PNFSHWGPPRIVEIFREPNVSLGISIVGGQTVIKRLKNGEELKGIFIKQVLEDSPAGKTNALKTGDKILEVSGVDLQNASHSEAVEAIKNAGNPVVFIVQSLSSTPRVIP
row,Binder,pKd
1,"VYPNAKVELV [PDLIM4_iso2, P50479;P50479-1]",below the threshold
2,"YLEPVLSSEL [ATP2A2, P16615;P16615-3]",below the threshold

# Target: Inadl_8, Q8NI35
# Test: holdup assay
# Parameters: key: below the threshold = too weak to quantify, mostly under pKd 3.1 to 4
# Details: plain residues with an end cap or a label only (N-terminal biotin on a linker: ado-ado)
# Chain of Inadl_8, Q8NI35 (Q8NI35 1425-1530): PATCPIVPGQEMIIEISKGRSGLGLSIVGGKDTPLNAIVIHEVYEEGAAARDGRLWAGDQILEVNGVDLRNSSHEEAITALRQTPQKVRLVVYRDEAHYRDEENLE
row,Binder,pKd
1,"VYPNAKVELV [PDLIM4_iso2, P50479;P50479-1]",below the threshold
2,"YLEPVLSSEL [ATP2A2, P16615;P16615-3]",below the threshold

# Target: Inadl_9, Q8NI35
# Test: holdup assay
# Parameters: key: below the threshold = too weak to quantify, mostly under pKd 3.1 to 4
# Details: plain residues with an end cap or a label only (N-terminal biotin on a linker: ado-ado)
# Chain of Inadl_9, Q8NI35 (Q8NI35 1530-1615): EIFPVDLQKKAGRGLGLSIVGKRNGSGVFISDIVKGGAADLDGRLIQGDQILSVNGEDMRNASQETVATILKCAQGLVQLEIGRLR
row,Binder,pKd
1,"YLEPVLSSEL [ATP2A2, P16615;P16615-3]",below the threshold

# Target: T6, LIN7B, Q9HAP6
# Test: holdup assay
# Parameters: key: below the threshold = too weak to quantify, mostly under pKd 3.1 to 4
# Details: plain residues with an end cap or a label only (N-terminal biotin on a linker: ado-ado)
row,Binder,pKd
1,"VYPNAKVELV [PDLIM4_iso2, P50479;P50479-1]",below the threshold

# Target: T7, LIN7C, Q9NUP9
# Test: holdup assay
# Parameters: key: below the threshold = too weak to quantify, mostly under pKd 3.1 to 4
# Details: plain residues with an end cap or a label only (N-terminal biotin on a linker: ado-ado)
row,Binder,pKd
1,"VYPNAKVELV [PDLIM4_iso2, P50479;P50479-1]",below the threshold

# Target: LNX1_3, Q8TBB1
# Test: holdup assay
# Parameters: key: below the threshold = too weak to quantify, mostly under pKd 3.1 to 4
# Details: plain residues with an end cap or a label only (N-terminal biotin on a linker: ado-ado)
# Chain of LNX1_3, Q8TBB1 (Q8TBB1 500-596): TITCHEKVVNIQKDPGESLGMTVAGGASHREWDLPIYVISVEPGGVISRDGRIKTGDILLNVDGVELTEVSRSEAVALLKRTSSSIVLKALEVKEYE
row,Binder,pKd
1,"VYPNAKVELV [PDLIM4_iso2, P50479;P50479-1]",below the threshold
2,"YLEPVLSSEL [ATP2A2, P16615;P16615-3]",below the threshold

# Target: T8, LNX2_3, Q8N448
# Test: holdup assay
# Parameters: key: below the threshold = too weak to quantify, mostly under pKd 3.1 to 4
# Details: plain residues with an end cap or a label only (N-terminal biotin on a linker: ado-ado)
row,Binder,pKd
1,"VYPNAKVELV [PDLIM4_iso2, P50479;P50479-1]",below the threshold
2,"YLEPVLSSEL [ATP2A2, P16615;P16615-3]",below the threshold

# Target: MAGI2_5, Q86UL8
# Test: holdup assay
# Parameters: key: below the threshold = too weak to quantify, mostly under pKd 3.1 to 4
# Details: plain residues with an end cap or a label only (N-terminal biotin on a linker: ado-ado)
# Chain of MAGI2_5, Q86UL8 (Q86UL8 915-1017): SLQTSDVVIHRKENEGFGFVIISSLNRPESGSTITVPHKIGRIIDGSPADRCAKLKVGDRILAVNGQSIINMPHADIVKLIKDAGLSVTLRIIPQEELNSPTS
row,Binder,pKd
1,"VYPNAKVELV [PDLIM4_iso2, P50479;P50479-1]",below the threshold
2,"YLEPVLSSEL [ATP2A2, P16615;P16615-3]",4.82

# Target: MAST2, Q6P0Q8
# Test: holdup assay
# Parameters: key: below the threshold = too weak to quantify, mostly under pKd 3.1 to 4
# Details: plain residues with an end cap or a label only (N-terminal biotin on a linker: ado-ado)
# Chain of MAST2, Q6P0Q8 (Q6P0Q8 1099-1202): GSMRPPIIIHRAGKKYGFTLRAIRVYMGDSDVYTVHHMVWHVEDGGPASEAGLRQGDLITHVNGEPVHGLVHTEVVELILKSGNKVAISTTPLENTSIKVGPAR
row,Binder,pKd
1,"VYPNAKVELV [PDLIM4_iso2, P50479;P50479-1]",below the threshold
2,"YLEPVLSSEL [ATP2A2, P16615;P16615-3]",5.81

# Target: T9, MPP2, Q14168
# Test: holdup assay
# Parameters: key: below the threshold = too weak to quantify, mostly under pKd 3.1 to 4
# Details: plain residues with an end cap or a label only (N-terminal biotin on a linker: ado-ado)
row,Binder,pKd
1,"VYPNAKVELV [PDLIM4_iso2, P50479;P50479-1]",below the threshold
2,"YLEPVLSSEL [ATP2A2, P16615;P16615-3]",below the threshold

# Target: NHERF4_1, Q86UT5-2
# Test: holdup assay
# Parameters: key: below the threshold = too weak to quantify, mostly under pKd 3.1 to 4
# Details: plain residues with an end cap or a label only (N-terminal biotin on a linker: ado-ado)
# Chain of NHERF4_1, Q86UT5-2 (Q86UT5 other isoform, or with tags, fused parts or gaps): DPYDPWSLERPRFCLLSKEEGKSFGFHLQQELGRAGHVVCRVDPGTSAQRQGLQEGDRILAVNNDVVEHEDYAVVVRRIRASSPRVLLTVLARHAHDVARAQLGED
row,Binder,pKd
1,"VYPNAKVELV [PDLIM4_iso2, P50479;P50479-1]",3.98
2,"YLEPVLSSEL [ATP2A2, P16615;P16615-3]",4.39

# Target: NHERF4_4, Q86UT5
# Test: holdup assay
# Parameters: key: below the threshold = too weak to quantify, mostly under pKd 3.1 to 4
# Details: plain residues with an end cap or a label only (N-terminal biotin on a linker: ado-ado)
# Chain of NHERF4_4, Q86UT5 (Q86UT5 464-550): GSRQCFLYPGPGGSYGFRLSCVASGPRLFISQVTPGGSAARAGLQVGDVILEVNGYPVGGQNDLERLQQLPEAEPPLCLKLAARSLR
row,Binder,pKd
1,"VYPNAKVELV [PDLIM4_iso2, P50479;P50479-1]",below the threshold
2,"YLEPVLSSEL [ATP2A2, P16615;P16615-3]",below the threshold

# Target: T10, PDZD2_2, O15018
# Test: holdup assay
# Parameters: key: below the threshold = too weak to quantify, mostly under pKd 3.1 to 4
# Details: plain residues with an end cap or a label only (N-terminal biotin on a linker: ado-ado)
row,Binder,pKd
1,"VYPNAKVELV [PDLIM4_iso2, P50479;P50479-1]",below the threshold
2,"YLEPVLSSEL [ATP2A2, P16615;P16615-3]",4.41

# Target: T11, PDZD7_3, Q9H5P4
# Test: holdup assay
# Parameters: key: below the threshold = too weak to quantify, mostly under pKd 3.1 to 4
# Details: plain residues with an end cap or a label only (N-terminal biotin on a linker: ado-ado)
row,Binder,pKd
1,"VYPNAKVELV [PDLIM4_iso2, P50479;P50479-1]",3.99
2,"YLEPVLSSEL [ATP2A2, P16615;P16615-3]",4.91
